US20250270300A1 (UNIVERSITY COURT OF THE UNIVERSITY OF ABERDEEN, published 2025)

What was measured:
human serum albumin = molecular target: T1, human serum albumin (human, UniProt P02768 25-609); assay: ELISA
T1 construct: also called HSA

[1] = molecular target: T2, Recombinant Hyr1 N-terminus fragment (Candida albicans, UniProt Q5AL03 63-350); assay: ELISA, plate coated with recombinant Hyr1 N-terminus, titrated mAb
T2 construct: the last 288 residues are Hyr1 63-350; Expressed in HEK293F cells, 32 kDa; also called recombinant N-terminus of the Hyr1 protein; purified Hyr1 protein
T2 sequence: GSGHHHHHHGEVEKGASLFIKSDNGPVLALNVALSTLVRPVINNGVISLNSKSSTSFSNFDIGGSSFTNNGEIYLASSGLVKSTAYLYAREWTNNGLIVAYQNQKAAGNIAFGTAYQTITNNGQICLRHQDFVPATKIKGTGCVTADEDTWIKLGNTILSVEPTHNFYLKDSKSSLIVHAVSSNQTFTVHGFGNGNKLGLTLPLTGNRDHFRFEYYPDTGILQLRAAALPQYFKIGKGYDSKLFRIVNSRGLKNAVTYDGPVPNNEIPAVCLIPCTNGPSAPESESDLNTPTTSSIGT

T1 sequence (P02768 25-609 limits assumed): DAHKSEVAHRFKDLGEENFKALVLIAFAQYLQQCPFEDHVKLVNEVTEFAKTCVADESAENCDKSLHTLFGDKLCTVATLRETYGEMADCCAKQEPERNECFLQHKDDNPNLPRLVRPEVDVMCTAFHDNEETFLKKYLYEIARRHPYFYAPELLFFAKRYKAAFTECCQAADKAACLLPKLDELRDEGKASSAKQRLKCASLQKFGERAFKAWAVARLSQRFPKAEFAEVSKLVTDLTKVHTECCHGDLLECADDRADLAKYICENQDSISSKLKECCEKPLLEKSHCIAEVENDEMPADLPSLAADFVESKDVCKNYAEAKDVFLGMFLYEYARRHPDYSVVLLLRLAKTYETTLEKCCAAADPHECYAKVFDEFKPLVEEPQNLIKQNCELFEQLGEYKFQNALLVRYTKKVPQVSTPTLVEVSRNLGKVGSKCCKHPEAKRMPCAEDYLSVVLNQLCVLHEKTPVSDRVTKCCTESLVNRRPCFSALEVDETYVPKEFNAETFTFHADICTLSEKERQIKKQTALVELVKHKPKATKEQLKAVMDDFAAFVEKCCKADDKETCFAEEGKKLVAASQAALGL

B1: AB129 (antibody, human IgG1, V domains shown)
VH: QVQLVESGGGLVQPGGSLRLSCSASQFILSNYWVHWVRQVPGEGLVWVSRINEDGSVTSYADSVKGRFTISRDNAKNTLYLQMNSLRVDDTAVYYCVRDLCGERDDWGQGTLVTVSS
VL: VIWMTQSPLSLPVTPGEAASISCRSSQSLLHRNGRTFFAWYLQKPGQSPQILIYLGSNRAFGVPDRFSGSGSGTDFTLKISRVEAEDVGIYYCMQGLQTPYTFGQGTKLEIK
notes: Tested as purified recombinant whole human IgG1 (Expi293F); also called 06-AB-129; anti-whole cell mAb
binding result (human serum albumin): no binding

B2: AB118 (antibody, human IgG1, V domains shown)
VH: EVQLVESGGGLVQPGGSLRLSCSASQFILSNYWVHWVRQVPGEGLVWVSRINEDGSVTSYADSVKGRFTISRDNAKNTLYLQMNSLRVDDTAVYYCVRDLCGERDDWGQGTLVSVSS
VL: DIVMTQSPLSLPVTPGEAASISCRSSQSLLHRNGKTFFAWYLQKPGQSPQILIYLGSNRASGVPDRFSGSGSGTDFTLKISRVEAEDVGIYYCMQGLQTPYTFGQGTKLEIK
notes: Tested as purified recombinant whole human IgG1 (Expi293F); also called 06-AB-118; anti-whole cell mAb
binding result (human serum albumin): no binding

B3: AB130 (antibody, human IgG1, V domains shown)
VH: QLQLQESGGGLVQPGGSLRLSCSASQFILSNYWVHWVRQVPGEGLVWVSRINEDGSVTSYADSVKGRFTISRDNAKNTLYLQMNSLRVDDTAVYYCVRDLCWERDDWGQGTLVSVSS
VL: VIWMTQSPLSLPVTPGEAASISCRSSQSLLHRNGRTFFAWYLQKPGQSPQILIYLGSNRAFGVPDRFSGSGSGTDFTLKISRVEAEDVGIYYCMQGLQTPYTFGQGTKLEIK
notes: Tested as purified recombinant whole human IgG1 (Expi293F); also called 06-AB-130; anti-whole cell mAb
binding result (human serum albumin): no binding

B4: AB119 (antibody, human IgG1, V domains shown)
VH: QVTLKESGGGLVQPGGSLRLSCVASGFTFRTYWMHWVRQDPGKGLVWVSRLDEVGRLTSYADSVNGRFTISRDNAKNILYLQMNSLRAEDTGVYYCARDLSGSADYWGQGTLVTVSS
VL: DVVLTQSPLFLPVTPGEPASISCRSSQSLLHSRGHTSLHWYLQKPGQSPHLLIYSVFNRASGVPDRFSGSGSGTDFTLKISRVEAEDVGVYYCMQALEPPYTFGQGTKLEIK
notes: Tested as purified recombinant whole human IgG1 (Expi293F); also called 06-AB-119; anti-whole cell mAb
binding result (human serum albumin): no binding

B5: AB123 (antibody, human IgG1, V domains shown)
VH: EVQLLESGGGVVQPGRSLRLSCAASGFTFSNYGMHWVRQAPGKGLEWVAVVWFDGSYKYYTDSVKGRFTISRDNSKSTLYLQMNSLRAEDTAVYYCVSPIMTSAFDIWGPGTMVSVSS
VL: QLVLTQPPSASGSPGQSVTISCTGTSSDVGGSNFVSWYQHHPGKAPKLMIYEVSQRPSGVPDRFSGSKSGNTASLTVSGLQADDEADYYCSSYAGSVVLFGGGTKLTVL
notes: Tested as purified recombinant whole human IgG1 (Expi293F); also called 06-AB-123; anti-Hyr1 mAb
binding result (human serum albumin): no binding | EC50 [1]: 0.0533 µg/mL

B6: AB124 (antibody, human IgG1, V domains shown)
VH: EVQLVESGGGVVQPGRSLRLSCAASGFTFSNYGMHWVRQAPGKGLEWVAVVWLDGSYKYYTGSVKGRFTISRDNSKSTLYLQMNSLRAEDTAAYYCVSPIMTSAFDIWGPGTMVTVSS
VL: QLVLTQPPSASGSPGQSVTISCTGTSSDVGGSNFVSWYQHHPGKAPKLMIYEVSQRPSGVPDRFSGSKSGNTASLTVSGLQADDEADYYCSSYAGSVVLFGGGTKLTVL
notes: Tested as purified recombinant whole human IgG1 (Expi293F); also called 06-AB-124; anti-Hyr1 mAb
binding result (human serum albumin): no binding | EC50 [1]: 1.05 µg/mL

B7: AB134 (antibody, human IgG1, V domains shown)
VH: QLQLQESGGGLVQPGGSLRLSCVVSGFTFSSHAMSWVRQAPGKGLEWVSSISISGGDTFYADSVRGRFTIFRDNSKNTVYLQMNSLRAEDTAVYYCATETSPNDYWGQGTLVSVSS
VL: SYELTQPSSLTVSPGGTVTLTCGLSSGAVTSGHYPYWFQQKPGQAPKTLIFDTSRKHSWTPARFSGSLLGGKAALTLSGAQPEDDADYYCLLACNGACVFGGGTKLTVL
notes: Tested as purified recombinant whole human IgG1 (Expi293F); also called 06-AB-134; anti-whole cell mAb
binding result (human serum albumin): no binding

B8: AB135 (antibody, human IgG1, V domains shown)
VH: EVQLVETGGGLVQPGGSLRLSCVVSGFTFSSHAMSWVRQAPGKGLEWVSSISISGGDTFYADSVRGRFTIFRDNSKNTVYLQMNSLRAEDTAVYYCATETSPNDYWGQGTLVTVSS
VL: SYELTQPSSLTVSPGGTVTLTCGLSSGAVTSGHYPYWFQQKPGQAPKTLIFDTSRKHSWTPARFSGSLLGGKAALTLSGAQPEDDADYYCLLACNGACVFGGGTKLTVL
notes: Tested as purified recombinant whole human IgG1 (Expi293F); also called 06-AB-135; anti-whole cell mAb
binding result (human serum albumin): no binding

B9: AB131 (antibody, human IgG1, V domains shown)
VH: QVQLVQSGGGVVQPGGSLRLSCAASPFTFKTSILHWVRQAPGKGLEWVSAMSYDGFSKYYADSVKGRLTISRDSSTNTLYLEMNSLRFEDTALYFCAREAYTSGRAGCFNPWGQGVLVSVSS
VL: DIVMTQTPSTQSASVGDRVTITCRASQSISIWLAWYQQKPGKAPKLLIHDASTLESGVPSRFSGSGSGTEFTLTISSLQPDDSATYYCQRYNDYPPTFGPGTKVEIK
notes: Tested as purified recombinant whole human IgG1 (Expi293F); also called 06-AB-131; anti-whole cell mAb
binding result (human serum albumin): no binding

B10: AB132 (antibody, human IgG1, V domains shown)
VH: QVLKESGGGVVQPGGSLRLSCAASPFTFETSILHWVRQAPGKGLEWVSAMSYDGFSKYYADSVKGRLTISRDSSTNTLYLEMNSLRFEDTALYFCAREAYTSGRAGCFDPWGQGVLVSVSS
VL: EIVMTQSPSTQSASVGDRVTITCRASQSISIWLAWYQQKPGKAPKLLIHDASTLESGVPSRFSGSGSGTEFTLTISSLQPDDSATYYCQRYNDYPPTFGPGTKVEIK
notes: Tested as purified recombinant whole human IgG1 (Expi293F); also called 06-AB-132; anti-whole cell mAb
binding result (human serum albumin): no binding

B11: AB120 (antibody, human IgG1, V domains shown)
VH: EVQLVQSGGGLVQPGGSLGLSCAASGFIFTSYAMTWVRQAPGKGLEWVSVITGNVGTSYYADSVKGRFTISRDNSKKTVSLQMNSLRAEDTAIYYCVKTRYDFSSGYYFDDWGQGTLVSVSS
VL: DIVMTQSPSSVSASVGDKVTITCRASQGISRWLAWYQQKPGEAPELLIYAASSLQSGVPSRFSGSGSGTDFTLTISSLQPEDFATYYCQQANSFPITFGQGTRLQIK
notes: Tested as purified recombinant whole human IgG1 (Expi293F); also called 06-AB-120; anti-Hyr1 mAb
binding result (human serum albumin): no binding | EC50 [1]: 0.104 µg/mL

B12: AB122 (antibody, human IgG1, V domains shown)
VH: EVQLVQSGGGLAQPGRSLRLSCAASGFGFDDFAMHWVRQPPGKGLEWVSGLTWNGGSIDYAGSVRGRFTISRDNAKNSLFLQMNSLRAEDTALYYCAKGLSGGTMAPFDIWGQGTMVSVSS
VL: QAGLTQPPSVSVAPGQTATIPCGGNNIGSKHVHWYQQKPGQAPVAVVYDDSDRPSGVPERFSGSNSGNTATLTISSVEAGDEADYYCQVWDRSSDHFWLFGGGTRLTVL
notes: Tested as purified recombinant whole human IgG1 (Expi293F); also called 06-AB-122; anti-Hyr1 mAb
binding result (human serum albumin): no binding | EC50 [1]: 0.0496 µg/mL

B13: AB121 (antibody, human IgG1, V domains shown)
VH: EVQLVESGGTLVQPGGSLRLSCAASGFTFSDYWMNWVRQAPGKGLEWVANIKQDGSEKYYVDSLRGRVTISRDNAQNSVFLQMHSLSVEDTAVYYCARDGYTFGPATTELDHWGRGTLVSVSS
VL: QLVLTQPPSVSVSPGQTASITCSGDELRNKYTSWYQQKSGQSPVLVIYQDNNRPSGIPERFSGSQSGDTATLTISGTQAVDEADYYCQAWVSQTLVFGGGTKLTVL
notes: Tested as purified recombinant whole human IgG1 (Expi293F); also called 06-AB-121; anti-Hyr1 mAb
binding result (human serum albumin): no binding | EC50 [1]: 0.0765 µg/mL

B14: AB126 (antibody, human IgG1, V domains shown)
VH: EVQLVESGGGLAQPGGSLRLSCEASGFHLAGNAMAWVRQAPGKGLEWVAAIGGSDDRTDYADSVKGRFTISRDKSKNTLSLQMNSLRVEDTAVYYCAKDIWRWAFDYWGQGTLVSVSS
VL: DIVMTQSPATLSLSPGERATLSCWASQYINTYVNWYQHKPGQAPRLLIYDASKRATGIPARFSGSGSGTDFTLTISSLEPEDFAVYYCQQGSNWPLTFGQGTRLEIK
notes: Tested as purified recombinant whole human IgG1 (Expi293F); also called 06-AB-126; anti-whole cell mAb
binding result (human serum albumin): no binding

B15: AB133 (antibody, human IgG1, V domains shown)
VH: EVQLVESGGGLVQPGGSLRVSCAASGFTLNTYWMHWVRQAPGKGLVWVSRINEDGTTISYADSVRGRFTISRDNAENTLYLQMHSLRAEDTGVYYCARDFTGPFDSWGQGTLVSVSS
VL: QSVLTQPPSVSGTPGQRVTISCSGSNSNAGRDYVSWYQQVPGTAPKLLIYKNNQRPSGVPDRFSGSKSGTSASLAISGLRSEDDGDYYCIVWDGSLSGYVFGTGTKVTVL
notes: Tested as purified recombinant whole human IgG1 (Expi293F); also called 06-AB-133; anti-whole cell mAb
binding result (human serum albumin): no binding

B16: AB140 (antibody, human IgG1, V domains shown)
VH: EVQLVESGGGLVQPGGSLRVSCAASGFTLNTYWMHWVRQAPGKGLVWVSRINEDGTTISYADSVRGRFTISRDNAENTLYLQMHSLRAEDTGVYYCARDFTGPFDSWGQGTLVSVSS
VL: QLVLTQPPSVSGTPGQRVTISCSGSNSNVGRDYVSWYQQVPGTAPKLLIYKNNQRPSGVPDRFSGSKSGTSASLAISGLRSEDDGDYYCIVWDGSLSGYVFGTGTKVTVL
notes: Tested as purified recombinant whole human IgG1 (Expi293F); also called 06-AB-140; anti-whole cell mAb
binding result (human serum albumin): no binding

B17: AB139 (antibody, human IgG1, V domains shown)
VH: EVQLVESGGGLVQPGGSLRVSCAASGFTLNTYWMHWVRQAPGKGLVWVSRINEDGTTISYADSVRGRFTISRDNAENTLYLQMHSLRAEDTGVYYCARDFTGPFDSWGQGTLVSVSS
VL: QSVLTQPPSVSGTPGQRVTISCSGSNSNVGRDYVSWYQQVPGTAPKLLIYKNNRRPSGVPDRFSGSKSGTSASLAISGLRSEDDGDYYCIVWDGSLSGYVFGTGTKVTVL
notes: Tested as purified recombinant whole human IgG1 (Expi293F); also called 06-AB-139; anti-whole cell mAb
binding result (human serum albumin): no binding

B18: AB127 (antibody, human IgG1, V domains shown)
VH: EVQLVESGGGLVNPGGSLRLSCAASGFTFSNYAMNWVRQAPGKGLEWVSSISRSGDYIYYADSLKGRSTISRDNAKNSLFLQMNSLRAEDSAVYYCARDWGRLGYCSSNNCPDAFDVWGQGTRVSVSS
VL: EIVMTQSPSFVSASVGDRVTITCRASQDISNWLVWYQQKPGKAPKLLIYASSNLQSGVPSRFSGSGSGTDFALTIISLQPEDFATYYCQQENSFPYTFGQGTKLEIK
notes: Tested as purified recombinant whole human IgG1 (Expi293F); also called 06-AB-127; anti-whole cell mAb
binding result (human serum albumin): no binding
